US20140044713A1 (KONINKLIJKE NEDERLANDSE AKADEMIE VAN WETENSCHAPPEN, published 2014)

B1: USP47 (enzyme, not shown: small tags and cut ends)
chain: MVPGEENQLVPKEDVFWRCRQNIFDEMKKKFLQIENAAEEPRVLCIIQDTTNSKTVNERITLNLPASTPVRKLFEDVANKVGYINGTFDLVWGNGINTADMAPLDHTSDKSLLDANFEPGKKNFLHLTDKDGEQPQILLEDSSAGEDSVHDRFIGPLPREGSGGSTSDYVSQSYSYSSILNKSETGYVGLVNQAMTCYLNSLLQTLFMTPEFRNALYKWEFEESEEDPVTSIPYQLQRLFVLLQTSKKRAIETTDVTRSFGWDSSEAWQQHDVQELCRVMFDALEQKWKQTEQADLINELYQGKLKDYVRCLECGYEGWRIDTYLDIPLVIRPYGSSQAFASVEEALHAFIQPEILDGPNQYFCERCKKKCDARKGLRFLHFPYLLTLQLKRFDFDYTTMHRIKLNDRMTFPEELDMSTFIDVEDEKSPQTESCTDSGAENEGSCHSDQMSNDFSNDDGVDEGICLETNSGTEKISKSGLEKNSLIYELFSVMVHSGSAAGGHYYACIKSFSDEQWYSFNDQHVSRITQEDIKKTHGGSSGSRGYYSSAFASSTNAYMLIYRLKDPARNAKFLEVDEYPEHIKNLVQKERELEEQEKRQREIERNTCKIKLFCLHPTKQVMMENKLEVHKDKTLKEAVEMAYKMMDLEEVIPLDCCRLVKYDEFHDYLERSYEGEEDTPMGLLLGGVKSTYMFDLLLETRKPDQVFQSYKPGEVMVKVHVVDLKAESVAAPITVRAYLNQTVTEFKQLISKAIHLPAETMRIVLERCYNDLRLLSVSSKTLKAEGFFRSNKVFVESSETLDYQMAFADSHLWKLLDRHANTIRLFVLLPEQSPVSYSKRTAYQKAGGDSGNVDDDCERVKGPVGSLKSVEAILEESTEKLKSLSLQQQQDGDNGDSSKSTETSDFENIESPLNERDSSASVDNRELEQHIQTSDPENFQSEERSDSDVNNDRSTSSVDSDILSSSHSSDTLCNADNAQIPLANGLDSHSITSSRRTKANEGKKETWDTAEEDSGTDSEYDESGKSRGEMQYMYFKAEPYAADEGSGEGHKWLMVHVDKRITLAAFKQHLEPFVGVLSSHFKVFRVYASNQEFESVRLNETLSSFSDDNKITIRLGRALKKGEYRVKVYQLLVNEQEPCKFLLDAVFAKGMTVRQSKEELIPQLREQCGLELSIDRFRLRKKTWKNPGTVFLDYHIYEEDINISSNWEVFLEVLDGVEKMKSMSQLAVLSRRWKPSEMKLDPFQEVVLESSSVDELREKLSEISGIPLDDIEFAKGRGTFPCDISVLDIHQDLDWNPKVSTLNVWPLYICDDGAVIFYRDKTEELMELTDEQRNELMKKESSRLQKTGHRVTYSPRKEKALKIYLDGAPNKDLTQD
notes: TAP-MS bait
B2: RNF43 (other, not shown: small tags and cut ends)
chain: GFGRTGLVLAAAVESERSAEQKAIIRVIPLKMDPTGKLNLTLEGVFAGVAEITPAEGKLMQSHPLYLCNASDDDNLEPGFISIVKLESPRRAPRPCLSLASKARMAGERGASAVLFDITEDRAAAEQLQQPLGLTWPVVLIWGNDAEKLMEFVYKNQKAHVRIELKEPPAWPDYDVWILMTVVGTIFVIILASVLRIRCRPRHSRPDPLQQRTAWAISQLATRRYQASCRQARGEWPDSGSSCSSAPVCAICLEEFSEGQELRVISCLHEFHRNCVDPWLHQHRTCPLCMFNITEGDSFSQSLGPSRSYQEPGRRLHLIRQHPGHAHYHLPAAYLLGPSRSAVARPPRPGPFLPSQEPGMGPRHHRFPRAAHPRAPGEQQRLAGAQHPYAQGWGLSHLQSTSQHPAACPVPLRRARPPDSSGSGESYCTERSGYLADGPASDSSSGPCHGSSSDSVVNCTDISLQGVHGSSSTFCSSLSSDFDPLVYCSPKGDPQRVDMQPSVTSRPRSLDSVVPTGETQVSSHVHYHRHRHHHYKKRFQWHGRKPGPETGVPQSRPPIPRTQPQPEPPSPDQQVTRSNSAAPSGRLSNPQCPRALPEPAPGPVDASSICPSTSSLFNLQKSSLSARHPQRKRRGGPSEPTPGSRPQDATVHPACQIFPHYTPSVAYPWSPEAHPLICGPPGLDKRLLPETPGPCYSNSQPVWLCLTPRQPLEPHPPGEGPSEWSSDTAEGRPCPYPHCQVLSAQPGSEEELEELCEQAV
notes: TAP-MS bait
B3: FBXO18 (other, not shown: small tags and cut ends)
chain: MRRFKRKHLTAIDCQHLARSHLAVTQPFGQRWTNRDPNHGLYPKPRTKRGSRGQGSQRCIPEFFLAGKQPCTNDMAKSNSVGQDSCQDSEGDMIFPAESSCALPQEGSAGPGSPGSAPPSRKRSWSSEEESNQATGTSRWDGVSKKAPRHHLSVPCTRPREARQEAEDSTSRLSAESGETDQDAGDVGPDPIPDSYYGLLGTLPCQEALSHICSLPSEVLRHVFAFLPVEDLYWNLSLVCHLWREIISDPLFIPWKKLYHRYLMNEEQAVSKVDGILSNCGIEKESDLCVLNLIRYTATTKCSPSVDPERVLWSLRDHPLLPEAEACVRQHLPDLYAAAGGVNIWALVAAVVLLSSSVNDIQRLLFCLRRPSSTVTMPDVTETLYCIAVLLYAMREKGINISNRIHYNIFYCLYLQENSCTQATKVKEEPSVWPGKKTIQLTHEQQLILNHKMEPLQVVKIMAFAGTGKTSTLVKYAEKWSQSRFLYVTFNKSIAKQAERVFPSNVICKTFHSMAYGHIGRKYQSKKKLNLFKLTPFMVNSVLAEGKGGFIRAKLVCKTLENFFASADEELTIDHVPIWCKNSQGQRVMVEQSEKLNGVLEASRLWDNMRKLGECTEEAHQMTHDGYLKLWQLSKPSLASFDAIFVDEAQDCTPAIMNIVLSQPCGKIFVGDPHQQIYTFRGAVNALFTVPHTHVFYLTQSFRFGVEIAYVGATILDVCKRVRKKTLVGGNHQSGIRGDAKGQVALLSRTNANVFDEAVRVTEGEFPSRIHLIGGIKSFGLDRIIDIWILLQPEEERRKQNLVIKDKFIRRWVHKEGFSGFKRYVTAAEDKELEAKIAVVEKYNIRIPELVQRIEKCHIEDLDFAEYILGTVHKAKGLEFDTVHVLDDFVKVPCARHNLPQLPHFRVESFSEDEWNLLYVAVTRAKKRLIMTKSLENILTLAGEYFLQAELTSNVLKTGVVRCCVGQCNNAIPVDTVLTMKKLPITYSNRKENKGGYLCHSCAEQRIGPLAFLTASPEQVRAMERTVENIVLPRHEALLFLVF
notes: TAP-MS bait
B4: PER2 (other, not shown: small tags and cut ends)
chain: MNGYAEFPPSPSNPTKEPVEPQPSQVPLQEDVDMSSGSSGHETNENCSTGRDSQGSDCDDSGKELGMLVEPPDARQSPDTFSLMMAKSEHNPSTSGCSSDQSSKVDTHKELIKTLKELKVHLPADKKAKGKASTLATLKYALRSVKQVKANEEYYQLLMSSEGHPCGADVPSYTVEEMESVTSEHIVKNADMFAVAVSLVSGKILYISDQVASIFHCKRDAFSDAKFVEFLAPHDVGVFHSFTSPYKLPLWSMCSGADSFTQECMEEKSFFCRVSVRKSHENEIRYHPFRMTPYLVKVRDQQGAESQLCCLLLAERVHSGYEAPRIPPEKRIFTTTHTPNCLFQDVDERAVPLLGYLPQDLIETPVLVQLHPSDRPLMLAIHKKILQSGGQPFDYSPIRFRARNGEYITLDTSWSSFINPWSRKISFIIGRHKVRVGPLNEDVFAAHPCTEEKALHPSIQELTEQIHRLLLQPVPHSGSSGYGSLGSNGSHEHLMSQTSSSDSNGHEDSRRRRAEICKNGNKTKNRSHYSHESGEQKKKSVTEMQTNPPAEKKAVPAMEKDSLGVSFPEELACKNQPTCSYQQISCLDSVIRYLESCNEAATLKRKCEFPANVPALRSSDKRKATVSPGPHAGEAEPPSRVNSRTGVGTHLTSLALPGKAESVASLTSQCSYSSTIVHVGDKKPQPELEMVEDAASGPESLDCLAGPALACGLSQEKEPFKKLGLTKEVLAAHTQKEEQSFLQKFKEIRKLSIFQSHCHYYLQERSKGQPSERTAPGLRNTSGIDSPWKKTGKNRKLKSKRVKPRDSSESTGSGGPVSARPPLVGLNATAWSPSDTSQSSCPAVPFPAPVPAAYSLPVFPAPGTVAAPPAPPHASFTVPAVPVDLQHQFAVQPPPFPAPLAPVMAFMLPSYSFPSGTPNLPQAFFPSQPQFPSHPTLTSEMASASQPEFPSRTSIPRQPCACPATRATPPSAMGRASPPLFQSRSSSPLQLNLLQLEEAPEGGTGAMGTTGATETAAVGADCKPGTSRDQQPKAPLTRDEPSDTQNSDALSTSSGLLNLLLNEDLCSASGSAASESLGSGSLGCDASPSGAGSSDTSHTSKYFGSIDSSENNHKAKMNTGMEESEHFIKCVLQDPIWLLMADADSSVMMTYQLPSRNLEAVLKEDREKLKLLQKLQPRFTESQKQELREVHQWMQTGGLPAAIDVAECVYCENKEKGNICIPYEEDIPSLGLSEVSDTKEDENGSPLNHRIEEQT
notes: TAP-MS bait

Target: T1, LRP5 (endogenous) (human, UniProt O75197 32-1615)
T1 construct: whole, on cells
T1 sequence (O75197 32-1615): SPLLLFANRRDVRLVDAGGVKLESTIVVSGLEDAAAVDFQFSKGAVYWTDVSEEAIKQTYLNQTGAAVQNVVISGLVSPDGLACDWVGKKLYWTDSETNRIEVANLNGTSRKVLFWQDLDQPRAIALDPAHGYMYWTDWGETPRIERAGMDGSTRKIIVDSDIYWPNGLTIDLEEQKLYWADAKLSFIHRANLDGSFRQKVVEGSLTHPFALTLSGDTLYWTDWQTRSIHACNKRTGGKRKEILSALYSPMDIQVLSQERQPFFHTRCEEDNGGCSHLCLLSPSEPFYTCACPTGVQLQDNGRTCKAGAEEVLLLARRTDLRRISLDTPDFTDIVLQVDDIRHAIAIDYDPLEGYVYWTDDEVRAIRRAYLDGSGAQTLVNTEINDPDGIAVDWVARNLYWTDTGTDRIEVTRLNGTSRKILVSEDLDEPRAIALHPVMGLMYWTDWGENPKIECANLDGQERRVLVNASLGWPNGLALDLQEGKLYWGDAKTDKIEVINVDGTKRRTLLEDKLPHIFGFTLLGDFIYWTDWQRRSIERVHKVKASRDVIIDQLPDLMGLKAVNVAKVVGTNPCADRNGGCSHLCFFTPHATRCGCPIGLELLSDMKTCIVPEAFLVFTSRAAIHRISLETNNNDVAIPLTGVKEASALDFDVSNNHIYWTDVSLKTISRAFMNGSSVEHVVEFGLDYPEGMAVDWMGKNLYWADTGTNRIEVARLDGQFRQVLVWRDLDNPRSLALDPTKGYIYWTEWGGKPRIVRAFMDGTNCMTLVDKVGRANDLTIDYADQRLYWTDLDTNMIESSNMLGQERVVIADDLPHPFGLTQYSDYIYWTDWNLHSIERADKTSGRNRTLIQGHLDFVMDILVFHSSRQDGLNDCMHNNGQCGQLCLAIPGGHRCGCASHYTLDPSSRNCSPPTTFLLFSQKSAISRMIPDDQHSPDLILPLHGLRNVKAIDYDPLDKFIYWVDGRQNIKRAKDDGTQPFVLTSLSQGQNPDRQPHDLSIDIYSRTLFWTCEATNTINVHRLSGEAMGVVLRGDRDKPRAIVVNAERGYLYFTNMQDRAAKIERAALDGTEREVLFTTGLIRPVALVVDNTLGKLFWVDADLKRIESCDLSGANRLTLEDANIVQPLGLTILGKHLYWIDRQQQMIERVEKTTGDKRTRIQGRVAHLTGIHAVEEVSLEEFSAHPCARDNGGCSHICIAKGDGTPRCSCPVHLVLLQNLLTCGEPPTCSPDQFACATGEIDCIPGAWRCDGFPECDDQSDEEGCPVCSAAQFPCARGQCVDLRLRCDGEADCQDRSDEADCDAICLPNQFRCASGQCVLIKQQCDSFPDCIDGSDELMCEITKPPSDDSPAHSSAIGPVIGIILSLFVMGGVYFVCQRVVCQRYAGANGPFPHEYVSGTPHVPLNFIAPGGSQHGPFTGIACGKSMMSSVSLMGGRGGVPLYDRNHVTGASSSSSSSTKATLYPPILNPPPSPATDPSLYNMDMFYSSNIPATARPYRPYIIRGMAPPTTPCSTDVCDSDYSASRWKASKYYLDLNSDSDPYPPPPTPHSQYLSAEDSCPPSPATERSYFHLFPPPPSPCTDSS
Experiment: TAP + mass spectrometry, HEK293 cells

binding result	Binder
no binding	B1
no binding	B2
no binding	B3
no binding	B4

Target: T2, LRP6 (endogenous) (human, UniProt O75581 20-1613)
T2 construct: whole, on cells
T2 sequence (O75581 20-1613): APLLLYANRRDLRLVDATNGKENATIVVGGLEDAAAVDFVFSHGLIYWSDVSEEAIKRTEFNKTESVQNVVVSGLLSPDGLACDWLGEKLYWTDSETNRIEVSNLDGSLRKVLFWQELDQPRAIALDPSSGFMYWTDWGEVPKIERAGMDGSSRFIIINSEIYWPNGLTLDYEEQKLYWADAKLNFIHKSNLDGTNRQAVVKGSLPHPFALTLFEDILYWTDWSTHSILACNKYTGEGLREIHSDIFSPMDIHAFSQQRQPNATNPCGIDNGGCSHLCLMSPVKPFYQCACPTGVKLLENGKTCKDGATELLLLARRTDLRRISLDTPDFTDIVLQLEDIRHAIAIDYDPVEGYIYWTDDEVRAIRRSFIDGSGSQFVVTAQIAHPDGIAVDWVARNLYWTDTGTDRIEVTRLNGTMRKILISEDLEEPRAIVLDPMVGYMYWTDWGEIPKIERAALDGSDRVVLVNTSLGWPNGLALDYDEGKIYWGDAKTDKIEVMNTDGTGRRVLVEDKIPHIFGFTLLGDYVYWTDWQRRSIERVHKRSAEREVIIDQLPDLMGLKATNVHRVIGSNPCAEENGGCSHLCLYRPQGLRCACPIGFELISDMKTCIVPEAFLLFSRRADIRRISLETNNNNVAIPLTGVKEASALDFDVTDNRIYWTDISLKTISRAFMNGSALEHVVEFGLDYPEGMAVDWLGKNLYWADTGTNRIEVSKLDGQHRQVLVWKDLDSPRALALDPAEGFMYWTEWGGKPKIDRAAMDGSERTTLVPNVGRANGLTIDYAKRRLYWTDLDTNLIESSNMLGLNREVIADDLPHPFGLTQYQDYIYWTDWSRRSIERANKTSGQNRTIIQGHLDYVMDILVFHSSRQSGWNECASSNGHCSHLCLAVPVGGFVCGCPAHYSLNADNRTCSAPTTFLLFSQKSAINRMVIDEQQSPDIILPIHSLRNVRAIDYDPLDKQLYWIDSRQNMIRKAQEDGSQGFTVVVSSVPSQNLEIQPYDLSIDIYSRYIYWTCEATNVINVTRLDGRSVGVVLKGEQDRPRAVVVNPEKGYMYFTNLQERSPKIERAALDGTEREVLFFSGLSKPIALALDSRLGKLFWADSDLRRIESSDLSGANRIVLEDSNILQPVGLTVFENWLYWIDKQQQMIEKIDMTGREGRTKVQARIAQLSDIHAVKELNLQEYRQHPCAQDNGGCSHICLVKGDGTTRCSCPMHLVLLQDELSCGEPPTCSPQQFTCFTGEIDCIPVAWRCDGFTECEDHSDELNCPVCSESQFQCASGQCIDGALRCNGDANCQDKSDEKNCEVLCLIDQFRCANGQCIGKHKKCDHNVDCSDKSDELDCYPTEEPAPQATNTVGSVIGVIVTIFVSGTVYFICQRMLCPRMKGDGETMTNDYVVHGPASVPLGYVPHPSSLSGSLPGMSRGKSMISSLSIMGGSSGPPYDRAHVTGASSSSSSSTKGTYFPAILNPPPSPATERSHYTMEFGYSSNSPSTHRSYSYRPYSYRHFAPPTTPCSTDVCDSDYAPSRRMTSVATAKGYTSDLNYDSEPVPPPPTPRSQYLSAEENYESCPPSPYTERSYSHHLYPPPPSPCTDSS
Experiment: TAP + mass spectrometry, HEK293 cells

binding result	Binder
no binding	B1
no binding	B3
no binding	B4
